Measured values reported in patent publication US20240325562A1, “INTERNALIZING BINDING MOLECULES” (LinXis B.V., priority 2020, published 2024).
Residue numbers refer to the chain shown, from its start.

B1: 13A12: VHH single domain antibody targeting IGF2R, SEQ ID NO: 289 (protein)
VHH: EVQLVESGGGLVQAGGSLRLSCAASGIIFGANTVGWYRQVPGKERDVVASITSGDSTYYGDSVRGRFTISRDNAKNTMYLQMNSLKPEDTAIYYCRARTTDGSYWGQGTQVTVS
B2: 13F11: VHH single domain antibody targeting IGF2R, SEQ ID NO: 273 (protein)
VHH: EVQLVESGGRLVQPGDSLRLSCAASGRTFSDNAMGWFRQAPGKERRFVAGISWAGGSTYYSDSVKGRFTISRDNAKNTVYLQMNSLKPEDTAVYYCAAGLRAWVQRMPKDYNYWGQGTQVTVSS
B3: 13E8: VHH single domain antibody targeting IGF2R, SEQ ID NO: 249 (protein)
VHH: EVQLVESGGGLVQAGGSLRLSCAASRSISPMGWYRQAPGKQRELVAIMPSSGPPIYADSVQGRFTISRDNAKNTVYLQMNSLKPEDTAVYYCNVGGGYWGQGTQVTVSS
B4: 13A8: VHH single domain antibody targeting IGF2R, SEQ ID NO: 257 (protein)
VHH: EVQLVESGGGLVPAGGSLRLSCAASGRTFSNYAMGWFRQAPGKERKFVATISWSGGVTYYADSVKGRFTISRDNAKNTVYLLMNSLKPEDTAVYYCAAKRDSSSYDHRRYDYWGQGTQVTVSS
B5: test conjugate: 13F11-13E8-ABD conjugated to a Y27632-maleimide modified functional moiety (1e) (conjugate)
chain: EVQLVESGGRLVQPGDSLRLSCAASGRTFSDNAMGWFRQAPGKERRFVAGISWAGGSTYYSDSVKGRFTISRDNAKNTVYLQMNSLKPEDTAVYYCAAGLRAWVQRMPKDYNYWGQGTQVTVSSGGGGSGGGGSGGGGSEVQLVESGGGLVQAGGSLRLSCAASRSISPMGWYRQAPGKQRELVAIMPSSGPPIYADSVQGRFTISRDNAKNTVYLQMNSLKPEDTAVYYCNVGGGYWGQGTQVTVSS
modifications: non-natural residues; left off: large carriers; small tags and cut ends
B6: 13C11: VHH single domain antibody targeting IGF2R, SEQ ID NO: 297 (protein)
VHH: EVQLVESGGGLVQAGGSLRLSCAASGLTFSSYTMAWYRQAPGKEREVVAAISSGDSIYHEGSVQGRFIISRDNAKNTVYLQMNSLKAEDTAVYYCRANGPGTYWGQGTQVTVSS
B7: 13G10: VHH single domain antibody targeting IGF2R, SEQ ID NO: 305 (protein)
VHH: B6 VHH with G61D
B8: SP20P: VHH single domain antibody targeting PDGFRB, SEQ ID NO: 113 (protein)
VHH: EVQLVESGGGLVQAGGSLRLSCVISGRTSPTYPMGWFRQSPGNEREFVASINWSGGWRNYADSVKDRFTISRDDAKNTVYLQMNSLKPEDTAVYYCARGQYSSGTPVYAHEYAYWGQGTQVTVSS

Columns and labels:
hIGF2R-ECD = target: T1, hIGF2R-ECD (Homo sapiens, UniProt P11717); test: Competition assay with 13F11-A647 as reporter VHH on immobilized hIGF2R-ECD; assay type: binding; conditions: for competition with reporter VHH 13F11-A647: 10 nM 13F11-A647, 250 nM unconjugated competitor VHH; for less fluorescence intensity (decrease in binding of labelled 13F11): 10 nM labelled 13F11, 250 nM unlabelled competitor VHH
T1 construct: immobilized recombinant human extracellular domain of IGF2R (hIGF2R-ECD) was used
Method: With the term “compete” is meant that in a competition assay, such as for instance described in Example 6 of the present invention, the addition of a binding molecule induces a significant decrease in binding of a given VHH, i.e., the VHH to which the competing is determined. “Significant” in this respect is preferably a decrease of >5%, preferably >10% when 250 nM of a binding molecule is added to 10 nM of a fluorescence labelled VHH in an ELISA. […] The same test conditions and threshold apply to a binding molecule directed to PDGFRB when determining whether a binding molecule competes with a given VHH.
(§1) Biparatopic VHH constructs contain two VHH which bind to a different epitope, i.e. which are non-competitive binders. To identify (a) pair(s) of non-competitive binders, competition assays were performed. In the example shown, an Alexa fluor-conjugate of the high affine VHH 13F11 was used as the reporter VHH (13F11-A647, see example 10.2). In the assay, a non-saturating amount (10 nM) of 13F11-A647 was incubated with immobilized hIGF2R-ECD in the presence or absence of 250 nM unconjugated competitor VHH to allow competition to take place.

[1] = system: A549 cells that endogenously express hIGF2R; test: Internalization by fluorescence microscopy after acid wash, A549 cells; assay type: cell-based, human; conditions: 25 nM Alexa fluor 647 conjugate
Method: (§2) First, Alexa fluor 647-conjugates of the VHH 13F11 and the biparatopic VHH construct […] were added to A549 cells that endogenously express hIGF2R (FIG. 16A), NIH 3T3 2.2 cells that were transiently transfected with hIGF2R (FIG. 16B), or mock transfected NIH 3T3 2.2 cells (as a negative control). For this, the cells were incubated with 25 nM of the VHH or the VHH construct. Before fluorescent microscopy readout, to ensure that only signal of internalized VHH or mouse anti-IGF2R was present, an acid wash (0.2M glycine-HCl, 150 mM NaCl, pH 2.3) was used to remove VHH or mouse anti-IGF2R bound to the target receptors on the cell surface. The efficiency of the acid wash procedure was verified by incubating the hIGF2R transfected NIH 3T3 2.2 cells with 13F11-13E8-A647 on ice and subsequently treating these cells with an acid wash while remaining on ice to prevent internalization (FIG. 16D). […] Summarizing, biparatopic 13F11-13E8 clearly internalizes in cells expressing hIGF2R on the cell surface.

[2] = system: NIH 3T3 2.2 cells that were transiently transfected with hIGF2R; test: Internalization by fluorescence microscopy after acid wash, hIGF2R-transfected NIH 3T3 2.2 cells; assay type: cell-based, human; conditions: 25 nM Alexa fluor 647 conjugate
Method: as §2

[3] = system: mock transfected NIH 3T3 2.2 cells; test: Internalization by fluorescence microscopy after acid wash, mock transfected cells; assay type: cell-based; conditions: 25 nM Alexa fluor 647 conjugate, negative control cells
Method: as §2

[4] = system: BDL rats (portal hypertension); test: Portal pressure and mean arterial pressure in BDL and SHAM rats; assay type: in vivo, Sprague-Dawley rats; conditions: 5 mg/kg i.v.
Source text: To evaluate in vivo functionality, 13F11-13E8-ABD was conjugated to a Y27632-maleimide modified functional moiety (1e) (the test conjugate) as outlined in example 10.2. To provide a comparator, a similar amount of 13F11-13E8-ABD was conjugated to N-ethylmaleimide in a parallel and similar preparation (the mock conjugate).
To establish animals displaying portal hypertension (Klein et al, Fibrosis: Methods and Protocols. Methods in Molecular Biology. 2017 (1627): 91-122.), Sprague-Dawley rats were subjected to bile duct ligation (BDL) through median laparotomy under ketamine/xylazine-induced anaesthesia i.p. (BDL rats). To provide healthy controls, a second cohort of rats was subjected to the same surgical procedure except for actual ligation of the bile duct (SHAM rats). Surgery was followed-up with pain control medication (carprofen s.c.). Approximately five weeks after surgery, ketamine/xylazine anesthetized rats were subjected to median laparotomy, after which one catheter was inserted through an ileocecal vein to the portal vein, and one catheter was inserted into the femoral artery. The catheters were connected to pressure recording equipment, for assessment of portal pressure and mean arterial pressure, respectively.
(§3) After catheterization and hemodynamic stabilization, rats were dosed with 5 mg/kg test conjugate or mock conjugate i.v. through the lateral tail vein and pressures were monitored continuously (example 15.1.). One hour after dosing, animals were sacrificed after which tissues were isolated for ex vivo analysis (example 15.2.).

IGF2R = target: T2, IGF2R (Rattus norvegicus, UniProt G3V824); test: In situ detection of infused test conjugate in liver sections; assay type: in vivo; conditions: for detection of conjugate in liver: one hour after 5 mg/kg i.v., anti-VHH antiserum
T2 construct: from tissue; host or cells: cryo-sections of rat tissues (liver, kidney, spleen, heart, ileum, brain); Sprague-Dawley BDL and SHAM rats
Method: as §3
After isolation, livers obtained from test conjugate-infused BDL and SHAM rats were fixated with paraformaldehyde, soaked in 30% (w/v) sucrose in PBS, and sectioned using cryo-microtome.
To detect the test conjugate in situ, tissue sections were stained with a rabbit polyclonal anti-VHH antiserum recognizing the 13F11-13E8 moiety of the conjugate, followed by an anti-rabbit antibody conjugated to the fluorophore Alexa-488 for visualization by confocal fluorescence microscopy (cf. example 14).

hPDGFRB = hPDGFRB (Homo sapiens, UniProt P09619); test: Competition assays of PDGFRB VHHs on hPDGFRB; assay type: binding; conditions: VHHs from libraries 1 and 2; four main groups
Method: as §1
Similar as to in example 6.1, competition assays were performed to identify unique hPDGFRB- or rPDGFRB binders. Across 10 PDGFRB-binding VHHs obtained from libraries 1 and 2 (e.g. the VHH raised against hPDGFRB), four main groups were identified being first SP01P, SP02P, SP07P and SP13P, second SP05P, SP08P and SP10P, third SP12P and SP20P and finally SP14P. All VHH within each of the first three groups mutually competed.
To evaluate whether the obtained VHHs would qualify as building blocks for multivalent VHH constructs that bind hPDGFRB as well as rPDGFRB (e.g. ‘species cross-reactive’ VHH constructs), competition assays were performed using the most promising VHHs SP02 (raised against hPDGFRB) and SP26P (raised against rPDGFRB).

[5] = BDL rats, monitored for one hour

T2 sequence (G3V824 36-2481): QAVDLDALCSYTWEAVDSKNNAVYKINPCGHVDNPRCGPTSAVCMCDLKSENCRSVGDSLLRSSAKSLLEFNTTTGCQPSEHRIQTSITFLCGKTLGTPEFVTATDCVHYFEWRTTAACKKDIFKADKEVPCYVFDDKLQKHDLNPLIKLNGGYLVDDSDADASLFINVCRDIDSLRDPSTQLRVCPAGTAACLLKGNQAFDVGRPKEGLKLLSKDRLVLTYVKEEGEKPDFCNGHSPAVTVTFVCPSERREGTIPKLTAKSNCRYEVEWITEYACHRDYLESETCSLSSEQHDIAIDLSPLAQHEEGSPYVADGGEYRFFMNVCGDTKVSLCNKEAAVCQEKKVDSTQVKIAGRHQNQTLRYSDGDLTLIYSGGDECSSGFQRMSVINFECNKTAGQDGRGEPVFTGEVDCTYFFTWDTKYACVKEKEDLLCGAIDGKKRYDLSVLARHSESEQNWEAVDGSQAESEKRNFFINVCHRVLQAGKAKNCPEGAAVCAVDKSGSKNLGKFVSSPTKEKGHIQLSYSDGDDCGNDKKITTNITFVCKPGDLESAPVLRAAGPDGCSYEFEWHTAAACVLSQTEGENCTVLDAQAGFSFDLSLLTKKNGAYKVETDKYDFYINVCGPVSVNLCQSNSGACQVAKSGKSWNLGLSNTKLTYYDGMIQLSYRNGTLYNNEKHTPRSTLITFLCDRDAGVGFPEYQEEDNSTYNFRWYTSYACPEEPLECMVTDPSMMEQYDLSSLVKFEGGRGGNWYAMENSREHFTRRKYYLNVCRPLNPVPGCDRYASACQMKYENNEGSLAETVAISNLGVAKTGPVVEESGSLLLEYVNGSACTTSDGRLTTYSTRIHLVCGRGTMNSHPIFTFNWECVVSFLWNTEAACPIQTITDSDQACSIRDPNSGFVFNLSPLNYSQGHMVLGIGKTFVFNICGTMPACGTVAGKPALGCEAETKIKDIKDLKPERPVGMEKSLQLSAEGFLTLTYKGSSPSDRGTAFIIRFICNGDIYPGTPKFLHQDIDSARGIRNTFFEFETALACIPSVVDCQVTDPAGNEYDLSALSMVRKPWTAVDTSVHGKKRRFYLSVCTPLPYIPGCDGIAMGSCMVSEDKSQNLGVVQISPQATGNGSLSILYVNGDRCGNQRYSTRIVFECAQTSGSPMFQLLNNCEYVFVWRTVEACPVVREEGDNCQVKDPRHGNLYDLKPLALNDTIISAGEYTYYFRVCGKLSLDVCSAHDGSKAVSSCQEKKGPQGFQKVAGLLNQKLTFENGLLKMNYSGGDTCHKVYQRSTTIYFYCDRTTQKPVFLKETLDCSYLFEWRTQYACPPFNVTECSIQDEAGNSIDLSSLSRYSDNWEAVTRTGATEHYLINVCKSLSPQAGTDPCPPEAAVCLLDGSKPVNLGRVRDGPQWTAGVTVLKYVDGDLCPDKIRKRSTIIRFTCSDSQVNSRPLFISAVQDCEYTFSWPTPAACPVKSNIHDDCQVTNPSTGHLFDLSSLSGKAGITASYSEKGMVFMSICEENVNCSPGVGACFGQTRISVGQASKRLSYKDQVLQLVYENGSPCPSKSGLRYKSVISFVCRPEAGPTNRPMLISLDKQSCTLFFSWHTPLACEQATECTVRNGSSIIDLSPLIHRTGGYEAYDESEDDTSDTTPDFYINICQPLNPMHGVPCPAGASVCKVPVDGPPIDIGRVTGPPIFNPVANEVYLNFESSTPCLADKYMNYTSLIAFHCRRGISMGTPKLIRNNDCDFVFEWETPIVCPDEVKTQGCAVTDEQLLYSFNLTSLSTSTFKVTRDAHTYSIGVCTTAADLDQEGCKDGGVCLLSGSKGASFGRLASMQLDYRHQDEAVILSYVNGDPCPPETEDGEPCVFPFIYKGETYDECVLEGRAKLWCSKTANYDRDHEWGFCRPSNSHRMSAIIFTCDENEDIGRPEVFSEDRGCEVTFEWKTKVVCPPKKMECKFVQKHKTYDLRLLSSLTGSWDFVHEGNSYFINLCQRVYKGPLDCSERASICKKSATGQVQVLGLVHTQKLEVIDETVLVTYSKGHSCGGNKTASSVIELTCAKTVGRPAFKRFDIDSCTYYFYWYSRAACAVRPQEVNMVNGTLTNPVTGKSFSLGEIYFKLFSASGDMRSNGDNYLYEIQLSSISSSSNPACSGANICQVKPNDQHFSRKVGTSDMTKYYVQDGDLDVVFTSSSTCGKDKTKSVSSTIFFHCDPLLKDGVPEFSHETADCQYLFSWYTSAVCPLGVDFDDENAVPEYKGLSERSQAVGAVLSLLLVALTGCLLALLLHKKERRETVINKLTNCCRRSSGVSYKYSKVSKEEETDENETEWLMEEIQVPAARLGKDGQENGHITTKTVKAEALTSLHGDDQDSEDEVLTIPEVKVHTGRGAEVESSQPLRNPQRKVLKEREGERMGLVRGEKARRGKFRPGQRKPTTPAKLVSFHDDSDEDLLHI
Chain of hPDGFRB (P09619 33-532 limits assumed): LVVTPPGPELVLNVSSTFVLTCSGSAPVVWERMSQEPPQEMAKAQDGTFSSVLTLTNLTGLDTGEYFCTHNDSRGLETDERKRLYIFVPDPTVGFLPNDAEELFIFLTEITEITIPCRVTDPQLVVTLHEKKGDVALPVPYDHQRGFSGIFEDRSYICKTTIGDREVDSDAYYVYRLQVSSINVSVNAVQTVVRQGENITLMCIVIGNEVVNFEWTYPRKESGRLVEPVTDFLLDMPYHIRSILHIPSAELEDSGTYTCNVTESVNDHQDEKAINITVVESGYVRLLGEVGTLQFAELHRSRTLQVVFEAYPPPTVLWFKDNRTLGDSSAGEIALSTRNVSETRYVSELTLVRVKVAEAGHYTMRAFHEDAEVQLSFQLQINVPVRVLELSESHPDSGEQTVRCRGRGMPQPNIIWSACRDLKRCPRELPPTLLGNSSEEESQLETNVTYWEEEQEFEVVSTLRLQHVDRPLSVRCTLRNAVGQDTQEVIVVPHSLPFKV

| Molecule | competition with reporter VHH 13F11-A647 (hIGF2R-ECD) | less fluorescence intensity (decrease in binding of labelled 13F11) (hIGF2R-ECD) | other results |
| --- | --- | --- | --- |
| B1 | competed with 13F11 | substantially more decrease in fluorescence intensity | – |
| B2 | competed with 13F11-A647 | – | internalization [1]: no internalization was observed; internalization [2]: internalized; internalization [3]: no internalization was observed |
| B3 | did not compete with 13F11 | less than 5% | – |
| B4 | competed with 13F11 | substantially more decrease in fluorescence intensity | – |
| B5 | – | – | mean arterial pressure (MAP) [4, 5]: remained constant; portal pressure (PP) [4, 5]: gradual decrease of portal pressure; portal or arterial pressure ([4]; SHAM rats): neither the test conjugate nor the mock conjugate affected portal or arterial pressure; detection of conjugate in liver (IGF2R; BDL rats): detected in the liver of BDL rats; distribution in liver versus (tissue) distribution of IGF2R (IGF2R; BDL rats, second staining with 13F11-13E8-A647): overlapped; detection of conjugate in liver (IGF2R; SHAM rats): not in the liver of SHAM rats |
| B6 | competed with 13F11 | substantially more decrease in fluorescence intensity | – |
| B7 | competed with 13F11 | substantially more decrease in fluorescence intensity | – |
| B8 | – | – | epitope group (mutual competition) (hPDGFRB): third |
